From doi:10.1101/2020.01.12.903617, “The peptide sensor motif stabilizes the outward-facing conformation of TmrAB” (bioRxiv, 2020)
Where a chain is given by its changes, count along the chain named. Names may count otherwise.

Experiments:
[1] = target: T1, TmrA C416S/L290C (chain of the double cysteine mutant of cysteine-less WT TmrAB) (Thermus thermophilus, UniProt Q72J05 1-600, C416S | L290C); test: cross-linking; disulfide cross-linking of engineered cysteines: 1 uM TmrAB double cysteine mutants in SEC buffer, 0.5 mM copper phenanthroline, 68°C, without or with 5 mM ATP, 10 mM MgCl2 and/or 8 mM sodium orthovanadate; SDS-PAGE, ~150 kDa band of the cross-linked dimer; conditions: both partners purified
T1 construct: TmrA, Thermus thermophilus, the chain of TmrAB with the canonical Walker B motif; Cysteine-less template made by GenScript; co-expressed with the TmrB chain; also called C416S^TmrA/L290C^TmrA
T1 sequence: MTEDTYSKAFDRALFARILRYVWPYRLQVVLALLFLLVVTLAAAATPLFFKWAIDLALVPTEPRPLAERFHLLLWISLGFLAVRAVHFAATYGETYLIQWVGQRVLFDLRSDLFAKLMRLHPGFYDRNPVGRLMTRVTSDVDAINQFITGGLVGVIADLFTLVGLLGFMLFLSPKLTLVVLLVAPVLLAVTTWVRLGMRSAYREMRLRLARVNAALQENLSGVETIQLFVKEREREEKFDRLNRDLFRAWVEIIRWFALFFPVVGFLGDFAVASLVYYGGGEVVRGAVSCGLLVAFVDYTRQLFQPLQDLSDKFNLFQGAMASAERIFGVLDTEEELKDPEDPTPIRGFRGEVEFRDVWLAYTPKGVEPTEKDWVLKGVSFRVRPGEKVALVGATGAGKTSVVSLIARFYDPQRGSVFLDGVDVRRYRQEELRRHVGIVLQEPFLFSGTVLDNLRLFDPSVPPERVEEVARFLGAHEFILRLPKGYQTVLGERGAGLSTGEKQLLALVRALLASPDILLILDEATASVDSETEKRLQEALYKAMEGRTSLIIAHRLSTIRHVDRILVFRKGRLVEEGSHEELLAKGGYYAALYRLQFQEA

[2] = target: T2, TmrA G131A/C416S/L290C (chain of the double cysteine mutant of G131A^TmrA TmrAB) (Thermus thermophilus, UniProt Q72J05 1-600, G131A | C416S | L290C); test: as above; conditions: both partners purified
T2 construct: TmrA, Thermus thermophilus, the chain of TmrAB with the canonical Walker B motif; Cysteine-less template made by GenScript; co-expressed with TmrB V275C; also called PSM glycine mutant
T2 sequence: T1 sequence with G131A

B1: TmrB G116A/V275C (chain of the double cysteine mutant of G116A^TmrB TmrAB) (natural protein, Thermus thermophilus)
chain: MTGRSAAPLLRRLWPYVGRYRWRYLWAVLAGLVSIFFFVLTPYFLRLAVDAVQAGRGFGVYALAIVASAALSGLLSYAMRRLAVVASRQVEYDLRRDLLHHLLTLDRDFYHKHRVADLMNRLNTDLSAVREMVGPGILMGSRLSFLVLLAFLSMYAVNARLAFYLTLILPGIFLAMRFLLRLIDRRYREAQEVFDRISTLAQEAFSGIRVVKGYALERRMVAWFQDLNRLYVEKSLALARVEGPLHALLGFLMGFAFLTVLWAGGAMVVRGELSCGELVQFNAYLAQLTWPILGLGWVMALYQRGLTSLRRLFELLDEKPAIRDEDPLPLALEDLSGEVRFEGVGLKRDGRWLLRGLTLTIPEGMTLGITGRTGSGKSLLAALVPRLLDPSEGRVYVGGHEARRIPLAVLRKAVGVAPQEPFLFSETILENIAFGLDEVDRERVEWAARLAGIHEEILAFPKGYETVLGERGITLSGGQRQRVALARALAKRPKILILDDALSAVDAETEARILQGLKTVLGKQTTLLISHRTAALRHADWIIVLDGGRIVEEGTHESLLQAGGLYAEMDRLQKEVEA
notes: TmrB, Thermus thermophilus, the chain of TmrAB with the non-canonical Walker B motif; Co-expressed with TmrA C416S/L290C; The cloning paragraph prints G116A^TmrA, all other places G116A^TmrB; also called PSM glycine mutant
binding result [1]: binds

B2: TmrB V275C (chain of the double cysteine mutant of cysteine-less WT TmrAB) (natural protein, Thermus thermophilus)
chain: B1 chain with A116G
notes: TmrB, Thermus thermophilus, the chain of TmrAB with the non-canonical Walker B motif; Co-expressed with the TmrA chain; also called V275C^TmrB
binding result [2]: binds
binding result [1]: binds
